We go through four molecules from patent US20070286935A1, “Bioactive Compositions, Natural Methods of Producing Them and Computational Methods for Designing Natural Production Processes” (NESTEC S.A., priority 2004, published 2007).

One experiment concerns the target T1, Y2-GPCR (Homo sapiens, UniProt P49146).
T1 sequence (P49146 1-381): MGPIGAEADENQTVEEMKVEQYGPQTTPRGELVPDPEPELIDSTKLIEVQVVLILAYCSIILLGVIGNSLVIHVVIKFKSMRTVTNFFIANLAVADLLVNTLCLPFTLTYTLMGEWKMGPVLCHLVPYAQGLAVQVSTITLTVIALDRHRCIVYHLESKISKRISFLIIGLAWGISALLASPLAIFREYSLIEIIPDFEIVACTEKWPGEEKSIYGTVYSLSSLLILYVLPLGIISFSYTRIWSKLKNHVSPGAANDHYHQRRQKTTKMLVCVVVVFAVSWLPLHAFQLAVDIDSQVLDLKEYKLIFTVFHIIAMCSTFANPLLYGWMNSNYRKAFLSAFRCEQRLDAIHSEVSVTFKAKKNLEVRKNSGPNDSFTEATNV
The experiment can be described thus: competitive binding assay against PYY22-36 on Y2-GPCR. How it is done:
The peptides derived from the proteins AtRGP2, OsRGP1 and OsBiP were synthesized in 5 mg quantities at and purified to a purity of above about 90%. The peptides were tested in a competitive binding assay against PYY^22-36 for binding to the GPCR receptor.
In-vitro receptor-based screening of receptor subtypes Y1, Y2, and Y3 was performed according to protocols known in the art. (Munoz et al., Mol. Cell. Endocrinol. 107, 77 (1995), Fuhlendorf et al., PNAS 87, 182 (1990)) Screening of OsBiP, ZmRGP1 and AtRGP1 was conducted on Y2-GPCR as described above using known methods and activity was measured as the percentage of inhibition of binding of the endogenous ligand PYY^22-36 sequence. The PYY^22-36 sequence was used as a positive control. Of the peptides tested, the one derived from AtRGP1 protein was able to inhibit binding of PYY^22-36 by 20-40% when 10 μM concentration of both the PYY^22-36 and OsBiP peptide were used in the binding assay. […] In vivo tissue-based screening on cultures of rat colon cells can be carried out according to known protocols, such as described in Dumont et al., Eur. J. Pharmacol. 238, 37 (1993).

The target in experiment [1] is T2, CCK-B GPCR receptor (human) (UniProt P32239).
T2 sequence (looked up): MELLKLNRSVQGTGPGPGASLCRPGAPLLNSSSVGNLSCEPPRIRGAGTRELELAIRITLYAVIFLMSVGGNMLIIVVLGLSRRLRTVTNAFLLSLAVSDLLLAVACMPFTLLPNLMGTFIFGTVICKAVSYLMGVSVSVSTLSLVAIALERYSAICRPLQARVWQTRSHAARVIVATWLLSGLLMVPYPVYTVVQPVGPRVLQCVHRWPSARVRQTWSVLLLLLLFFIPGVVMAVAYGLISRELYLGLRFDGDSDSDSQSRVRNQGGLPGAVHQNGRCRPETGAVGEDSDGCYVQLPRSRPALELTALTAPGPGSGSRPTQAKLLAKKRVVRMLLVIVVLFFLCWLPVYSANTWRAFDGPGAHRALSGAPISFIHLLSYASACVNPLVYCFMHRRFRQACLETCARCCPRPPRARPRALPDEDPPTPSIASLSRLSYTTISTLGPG
The experiment can be described thus: competitive receptor binding assay against CCK-8 on CCK-B receptor, synthetic peptide at 10 µM.

Another experiment deals with T3, Y2 GPCR receptor.
T3 sequence (P49146 whole entry, species assumed, looked up): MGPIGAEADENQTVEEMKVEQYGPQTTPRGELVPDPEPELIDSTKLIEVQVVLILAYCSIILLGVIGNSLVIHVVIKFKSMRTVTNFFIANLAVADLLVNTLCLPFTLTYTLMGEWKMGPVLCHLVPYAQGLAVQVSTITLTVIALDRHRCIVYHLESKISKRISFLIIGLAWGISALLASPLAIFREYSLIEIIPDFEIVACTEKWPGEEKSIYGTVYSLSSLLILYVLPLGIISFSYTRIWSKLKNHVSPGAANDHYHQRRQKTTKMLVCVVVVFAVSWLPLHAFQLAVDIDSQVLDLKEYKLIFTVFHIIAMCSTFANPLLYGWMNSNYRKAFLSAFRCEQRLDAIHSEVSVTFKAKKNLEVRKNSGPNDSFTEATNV
Description: competitive receptor binding assay on Y2-GPCR against PYY22-36, 10 µM of both peptides.

Consider “YSCRYFGYLVSKKKY (listed as Arabidopsis thaliana) [AtRGP1, peptide derived from Arabidopsis thaliana amylogenin protein RGP]”, for which the “percentage of inhibition of binding of the endogenous ligand PYY22-36” value with Y2-GPCR (10 μM concentration of both PYY22-36 and test peptide, Y2-GPCR) is given as 20-40%.
In the case of FDGVDFSEPLTRARF [OsBIP], in the experiment with Y2-GPCR (same technique, result in words), the “binding to the Y2 receptor” value is given as “shown to bind the Y2 receptor”.

B1: Oryza sativa oryzacystatin hydrolyzed with trypsin - synthetic peptide 3 (…) (peptide)
peptide: PWMDFKELQEFK
Turning to B1, the percent inhibition of binding of CCK-8 in experiment [1] is 5%.

B2: AtRGP2 peptide fragment (peptide derived from Arabidopsis thaliana amylogenin protein RGP) (peptide)
peptide: YSCRYFGYLVSKKKY
Regarding B2, in the experiment with Y2 GPCR receptor, the percent inhibition of binding of PYY22-36 is 20 to 40%.
